Source: US20200010522A1 (SALUBRIS BIOTHERAPEUTICS, published 2020)

Biological target: T1, monkey HER3 antigen (monkey)
T1 construct: also called HER3 (monkey)
Assay: BIAcore (SPR)

B1: anti-HER3 mAb/NRG-1 fusion protein (recombinant fusion protein, with Fc mutations) (antibody, human IgG1, kappa)
heavy: QVQLQQWGAGLLKPSETLSLTCAVYGGSFSGYYWSWIRQPPGKGLEWIGEINHSGSTNYNPSLKSRVTISVETSKNQFSLKLSSVTAADTAVYYCARDKWTWYFDLWGRGTLVTVSSASTKGPSVFPLAPSSKSTSGGTAALGCLVKDYFPEPVTVSWNSGALTSGVHTFPAVLQSSGLYSLSSVVTVPSSSLGTQTYICNVNHKPSNTKVDKRVEPKSCDKTHTCPPCPAPEFLGGPAVFLFPPKPKDTLMISRTPEVTCVVVDVSHEDPEVKFNWYVDGVEVHNAKTKPREEQYNSTYRVVSVLTVLHQDWLNGKEYKCKVSNKALPAPIEKTISKAKGQPREPQVYTLPPSREEMTKNQVSLTCLVKGFYPSDIAVEWESNGQPENNYKTTPPVLDSDGSFFLYSKLTVDKSRWQQGNVFSCSVMHEALHAHYTQKSLSLSPGKGGGGSGGGGSSHLVKCAEKEKTFCVNGGECFMVKDLSNPSRYLCKCPNEFTGDRCQNYVMASFYKAEELYQ
light: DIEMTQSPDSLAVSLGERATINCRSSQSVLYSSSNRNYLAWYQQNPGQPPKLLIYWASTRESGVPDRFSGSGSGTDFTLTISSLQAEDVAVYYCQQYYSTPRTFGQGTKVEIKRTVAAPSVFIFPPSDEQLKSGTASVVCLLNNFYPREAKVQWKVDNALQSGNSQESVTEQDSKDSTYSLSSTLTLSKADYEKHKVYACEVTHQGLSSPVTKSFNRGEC
notes: Made in CHO-derived HD-BIOP3 cells; also called the recombinant fusion protein disclosed herein; recombinant anti-HER3 mAb/NRG-1 fusion protein; copies: 2 + 2
Work on B1 yielded a Kd of 397 pM.
